Laboratory results published in paper doi:10.1101/2020.07.07.192757v1 (biorxiv, 2020).

Experiments:
CpPT1 = target: T1, CpPT1 (Citrus x paradisi, UniProt A0A810JZE7); experiment: geranyltransferase assay, LC product quantification, recombinant microsomes; settings: read-out: Apparent Km; co-substrate GPP; 10 mM MgCl2, pH 7.6, 28 °C
T1 sequence (A0A810JZE7 1-408 limits assumed): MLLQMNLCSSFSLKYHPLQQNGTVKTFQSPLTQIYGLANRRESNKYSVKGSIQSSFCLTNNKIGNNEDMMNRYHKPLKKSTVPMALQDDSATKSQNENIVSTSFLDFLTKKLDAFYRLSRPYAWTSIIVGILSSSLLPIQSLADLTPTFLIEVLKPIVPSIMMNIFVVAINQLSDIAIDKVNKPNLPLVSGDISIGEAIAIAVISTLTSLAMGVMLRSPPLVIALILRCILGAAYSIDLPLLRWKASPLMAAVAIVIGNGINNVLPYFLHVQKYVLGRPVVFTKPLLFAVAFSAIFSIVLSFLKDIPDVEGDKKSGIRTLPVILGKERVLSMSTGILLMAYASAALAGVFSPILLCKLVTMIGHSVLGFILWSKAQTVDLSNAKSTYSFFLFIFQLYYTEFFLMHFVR

AkPT1 = target: T2, AkPT1 (Angelica keiskei, UniProt A0A810JZD5); experiment: dimethylallyltransferase assay, HPLC, recombinant microsomes; assay type: cell-based; settings: read-out: Apparent Km; co-substrate DMAPP; 10 mM MgCl2, pH 8.0, 30 °C
T2 sequence (A0A810JZD5 1-398): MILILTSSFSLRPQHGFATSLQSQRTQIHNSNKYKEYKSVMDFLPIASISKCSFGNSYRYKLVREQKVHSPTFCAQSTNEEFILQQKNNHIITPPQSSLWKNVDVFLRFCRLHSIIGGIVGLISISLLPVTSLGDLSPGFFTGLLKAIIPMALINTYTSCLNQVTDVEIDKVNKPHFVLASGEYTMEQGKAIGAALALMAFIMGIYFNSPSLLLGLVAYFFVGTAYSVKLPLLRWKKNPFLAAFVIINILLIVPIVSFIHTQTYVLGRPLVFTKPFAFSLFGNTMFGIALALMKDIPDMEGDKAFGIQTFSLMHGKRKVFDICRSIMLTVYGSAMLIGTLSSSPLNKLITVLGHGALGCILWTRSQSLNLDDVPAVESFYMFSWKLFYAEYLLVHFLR

[1] = substrate: O=c1ccc2c(O)cc(O)cc2o1; experiment: cells, lysate or membranes; settings: co-substrate GPP, 10 mM MgCl2, pH 7.6, 28 °C
[2] = substrate: COc1cc(O)c2ccc(=O)oc2c1; experiment: cells, lysate or membranes; settings: co-substrate GPP, 10 mM MgCl2, pH 7.6, 28 °C
[3] = substrate: O=c1ccc2cc3ccoc3c(O)c2o1; experiment: cells, lysate or membranes; settings: co-substrate GPP, 10 mM MgCl2, pH 7.6, 28 °C
[4] = substrate: COc1c2ccoc2c(O)c2oc(=O)ccc12; experiment: cells, lysate or membranes; settings: co-substrate GPP, 10 mM MgCl2, pH 7.6, 28 °C
[5] = substrate: CC(C)=CCC/C(C)=C/COP(=O)(O)OP(=O)(O)O; experiment: cells, lysate or membranes; settings: co-substrate bergaptol, 10 mM MgCl2, pH 7.6, 28 °C
[6] = substrate: CC(C)=CCOP(=O)(O)OP(=O)(O)O; experiment: dimethylallyltransferase assay, HPLC, recombinant microsomes; assay type: cell-based, Angelica keiskei; settings: co-substrate bergaptol, 10 mM MgCl2, pH 8.0, 30 °C

`O=c1ccc2c(O)c3ccoc3cc2o1` [compound 12, Bergaptol] showed a Km (CpPT1) of 52 ± 4 µM and a Km (AkPT1) of 3.1 ± 0.3 µM.

B1: CpPT1 (Citrus x paradisi) (protein)
chain: MLLQMNLCSSFSLKYHPLQQNGTVKTFQSPLTQIYGLANRRESNKYSVKGSIQSSFCLTNNKIGNNEDMMNRYHKPLKKSTVPMALQDDSATKSQNENIVSTSFLDFLTKKLDAFYRLSRPYAWTSIIVGILSSSLLPIQSLADLTPTFLIEVLKPIVPSIMMNIFVVAINQLSDIAIDKVNKPNLPLVSGDISIGEAIAIAVISTLTSLAMGVMLRSPPLVIALILRCILGAAYSIDLPLLRWKASPLMAAVAIVIGNGINNVLPYFLHVQKYVLGRPVVFTKPLLFAVAFSAIFSIVLSFLKDIPDVEGDKKSGIRTLPVILGKERVLSMSTGILLMAYASAALAGVFSPILLCKLVTMIGHSVLGFILWSKAQTVDLSNAKSTYSFFLFIFQLYYTEFFLMHFVR
For B1, the Km [1] was 280 ± 30 µM, the Km [2] was 250 ± 30 µM and the Km [3] was 280 ± 20 µM. For the same molecule, the Km [4] was 700 ± 100 µM and the Km [5] was 10 ± 1 µM.

B2: AkPT1 (Angelica keiskei) (protein)
chain: MILILTSSFSLRPQHGFATSLQSQRTQIHNSNKYKEYKSVMDFLPIASISKCSFGNSYRYKLVREQKVHSPTFCAQSTNEEFILQQKNNHIITPPQSSLWKNVDVFLRFCRLHSIIGGIVGLISISLLPVTSLGDLSPGFFTGLLKAIIPMALINTYTSCLNQVTDVEIDKVNKPHFVLASGEYTMEQGKAIGAALALMAFIMGIYFNSPSLLLGLVAYFFVGTAYSVKLPLLRWKKNPFLAAFVIINILLIVPIVSFIHTQTYVLGRPLVFTKPFAFSLFGNTMFGIALALMKDIPDMEGDKAFGIQTFSLMHGKRKVFDICRSIMLTVYGSAMLIGTLSSSPLNKLITVLGHGALGCILWTRSQSLNLDDVPAVESFYMFSWKLFYAEYLLVHFLR
Work on B2 yielded a Km [6] of 1.8 ± 0.1 µM.
